The source of these data is the supplement of paper PMC10126150.

The data set deals with ATP. Put plainly: switch fluorescence ratio, 500 uM ATP over buffer (Cy3 cluster intensity, sum of 5 cycles each) (fold (ratio)); higher = stronger signal-on switching upon ATP binding; sequences stand for … in TCGTCGGCAGCGTCAGATGTGTATAAGAGACAGTTTTTTTTTTTTTTTTTTTTTTTTT…TC. Conditions: aptamer strand: ATP DNA aptamer (quencher-CACCTGGGGGAGTATTGCGGAGGAAGG + anchor), 100 nM annealed; ATP concentration: 500 uM. The essentials:
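Imaging in selection buffer was followed by imaging after 15 min with 500 uM ATP at 22 °C, for Cy3-labelled switching-strand clusters annealed to 100 nM quencher-labelled ATP aptamer on a modified Illumina MiSeq flow-cell. Five of these buffer/ATP cycles ran, separated by NaOH stripping and re-annealing. The fluorescence ratio per cluster is summed target-cycle over summed buffer-cycle Cy3 intensity, averaged per switch-domain sequence; clusters outside 100-1000 RFU were removed.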

± gives the standard deviation of the averaged measurements.
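Also: ATP exposure 15 min at 22 °C before imaging.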

With ATGTCAGGGA, the switch fluorescence ratio was 0.994 ± 0.019.

On to ATGTCCTATG, for which the switch fluorescence ratio amounted to 1.003 ± 0.0066.

With ATGTCGACTA, the switch fluorescence ratio came out at 1.02 ± 0.021.

For ATGTCGTGTC, the switch fluorescence ratio is 1 ± 0.013.

As to ATGTCTGGGA, the switch fluorescence ratio amounted to 1 ± 0.037.

Turning to ATGTCTGTAA, the switch fluorescence ratio came to 1 ± 0.013.

Regarding ATGTGAAAGA, the switch fluorescence ratio was 0.982 ± 0.011.

In the case of ATGTGAGAGG, the switch fluorescence ratio was 0.991 ± 0.022.

ATGTGAGTTA: the switch fluorescence ratio was 0.951 ± 0.039.

ATGTGATATG: the switch fluorescence ratio worked out at 0.994 ± 0.042.

With ATGTGATGCT, the switch fluorescence ratio came to 1.012 ± 0.0044.

For ATGTGCAATA, the switch fluorescence ratio came to 1.94 ± 0.082.

For ATGTGCGATT, the switch fluorescence ratio came to 1 ± 0.037.

For ATGTGCGGGC, the switch fluorescence ratio was 1.025 ± 0.0063.

For the sequence ATGTGCTCTA, the switch fluorescence ratio came out at 0.9692 ± 0.0047.

As to ATGTGCTCTC, the switch fluorescence ratio came out at 0.9817 ± 0.0082.

With ATGTGCTGCC, the switch fluorescence ratio amounted to 0.983 ± 0.019.

For the sequence ATGTGCTGTT, the switch fluorescence ratio was found to be 0.99802 ± 8.7e-05.

ATGTGGAAGT: the switch fluorescence ratio came out at 0.97 ± 0.043.

On to ATGTGGACCT, for which the switch fluorescence ratio worked out at 1.26 ± 0.065.

For the sequence ATGTGGATTC, the switch fluorescence ratio came to 1.02 ± 0.036.

As to ATGTGGATTT, the switch fluorescence ratio was 0.988 ± 0.023.

With ATGTGGCTCT, the switch fluorescence ratio was 0.9984 ± 0.0069.

As for ATGTGGGGGT, the switch fluorescence ratio is 0.994 ± 0.029.

Turning to ATGTGGTAAT, the switch fluorescence ratio amounted to 0.984 ± 0.024.

As to ATGTGGTACT, the switch fluorescence ratio came to 0.979 ± 0.027.

Regarding ATGTGGTCAT, the switch fluorescence ratio stood at 1.008 ± 0.0065.

ATGTGGTTAC: the switch fluorescence ratio was determined as 1.01 ± 0.048.

As for ATGTGTACCC, the switch fluorescence ratio was found to be 1.04 ± 0.016.

For ATGTGTTACG, the switch fluorescence ratio turned out to be 1.05 ± 0.012.

For the sequence ATGTGTTCGG, the switch fluorescence ratio amounted to 0.98 ± 0.0064.

Turning to ATGTGTTGTG, the switch fluorescence ratio was 0.98 ± 0.021.

ATGTGTTTGC: the switch fluorescence ratio is 0.99 ± 0.053.

In the case of ATGTTAAGAG, the switch fluorescence ratio stood at 0.9766 ± 0.0089.

On to ATGTTAAGTC, for which the switch fluorescence ratio is 0.97 ± 0.049.

As for ATGTTAGGGG, the switch fluorescence ratio came to 0.981 ± 0.041.

ATGTTAGGGT: the switch fluorescence ratio amounted to 0.988 ± 0.033.

For ATGTTAGTCG, the switch fluorescence ratio is 1.01 ± 0.014.

Turning to ATGTTATACT, the switch fluorescence ratio is 1.02 ± 0.028.

Take ATGTTATAGT: the switch fluorescence ratio worked out at 0.98 ± 0.04.

Turning to ATGTTCGGCG, the switch fluorescence ratio came out at 1.01 ± 0.036.

Take ATGTTCGTAG: the switch fluorescence ratio stood at 0.989 ± 0.015.

For the sequence ATGTTTATCG, the switch fluorescence ratio came out at 0.97 ± 0.016.

In the case of ATGTTTATTT, the switch fluorescence ratio came out at 0.998 ± 0.041.

For ATGTTTCAGT, the switch fluorescence ratio turned out to be 0.9982 ± 0.0021.

In the case of ATGTTTCGGT, the switch fluorescence ratio is 0.9918 ± 0.0073.

Regarding ATGTTTTCTG, the switch fluorescence ratio was found to be 0.968 ± 0.04.

As to ATGTTTTGAG, the switch fluorescence ratio came out at 0.983 ± 0.043.

On to ATGTTTTGTA, for which the switch fluorescence ratio was 1 ± 0.0053.

As for ATGTTTTTTC, the switch fluorescence ratio amounted to 0.977 ± 0.037.

Consider ATTAAAACTT, for which the switch fluorescence ratio was 1.05 ± 0.026.

Consider ATTAAAAGGT, for which the switch fluorescence ratio is 1 ± 0.026.

In the case of ATTAAAGTTA, the switch fluorescence ratio amounted to 1.01 ± 0.013.

As for ATTAAATGGC, the switch fluorescence ratio was determined as 1.02 ± 0.012.

For ATTAAATTTC, the switch fluorescence ratio worked out at 0.987 ± 0.014.

On to ATTAAGAGGT, for which the switch fluorescence ratio is 1.034 ± 0.0075.

With ATTAAGATGT, the switch fluorescence ratio was 1.002 ± 0.0049.

In the case of ATTAAGCTGT, the switch fluorescence ratio was found to be 1.009 ± 0.01.

ATTAAGTCGC: the switch fluorescence ratio was 1.01 ± 0.022.

With ATTAATAGCA, the switch fluorescence ratio is 0.9745 ± 0.0089.

Regarding ATTAATCGCT, the switch fluorescence ratio worked out at 0.9931 ± 0.0042.

Regarding ATTAATCGGC, the switch fluorescence ratio is 0.9735 ± 0.0033.

Regarding ATTAATCTT, the switch fluorescence ratio worked out at 1.011 ± 0.0016.

For ATTAATTAAT, the switch fluorescence ratio stood at 1 ± 0.034.

On to ATTAATTGGG, for which the switch fluorescence ratio was 1.01 ± 0.036.

As to ATTACAATAG, the switch fluorescence ratio was 1.095 ± 0.0077.
